Experimental data: the Immune Epitope Database (IEDB)
pIC50: −log10 of the molar value.

Tests used:
HLA-A*02:02 = assay: IEDB peptide-MHC binding, cellular MHC/competitive/fluorescence; ≥ and ≤ were set here for values at or beyond the usual limits of such assays
HLA-A*02:03 = assay: as above
HLA-A*02:06 [1] = assay: as above
HLA-A*68:02 [2] = assay: IEDB peptide-MHC binding, purified MHC/competitive/radioactivity; ≥ and ≤ were set here for values at or beyond the usual limits of such assays
HLA-A*02:01 [3] = assay: IEDB peptide-MHC binding, cellular MHC/competitive/fluorescence; ≥ and ≤ were set here for values at or beyond the usual limits of such assays
HLA-A*02:01 [4] = assay: IEDB peptide-MHC binding, purified MHC/competitive/radioactivity; ≥ and ≤ were set here for values at or beyond the usual limits of such assays; conditions: source organism: Vaccinia virus WR
HLA-A*68:02 [5] = assay: IEDB peptide-MHC binding, cellular MHC/competitive/fluorescence; ≥ and ≤ were set here for values at or beyond the usual limits of such assays; conditions: source organism: Vaccinia virus WR
HLA-A*02:06 [6] = assay: IEDB peptide-MHC binding, purified MHC/competitive/radioactivity; ≥ and ≤ were set here for values at or beyond the usual limits of such assays; conditions: source organism: Vaccinia virus WR
[7] = source organism: Vaccinia virus WR
[8] = source organism: Mammarenavirus guanaritoense
[9] = source organism: Influenza A virus

Sequence	pIC50 (HLA-A*02:02; [7])	pIC50 (HLA-A*02:03; [7])	pIC50 (HLA-A*02:06 [1]; [7])	pIC50 (HLA-A*68:02 [2]; [7])	pIC50 (HLA-A*02:01 [3]; [7])	also measured
IAVSVYGAIT	5.10	5.03	4.84	5.36		
ETFPNVHEHI	5.10	5.18	≤ 4.15	9.35	4.62	
TVKNVDIIDL	4.50	5.08	4.91	6.08	4.20	
DTIESAKTKI	4.32	4.30	≤ 4.15	6.24	4.23	
DVNSVQFSI	4.98	4.79	4.77	7.59	4.94	
LTHGADPNA	4.71	4.98	4.53	5.86	≤ 4.15	
CVDIFTEGKI	≤ 4.15	4.76	4.68	5.88	4.36	
DVEKRILNTI	4.68	4.90	4.97	5.36	4.26	
GLESIEQNLT	5.15	4.21	≤ 4.15	5.84	4.46	
FTELENKKV	4.71	5.09	5.17	5.40	≤ 4.15	
ETIQKDINI	4.44	4.29	4.46	7.34	≤ 4.15	
TTNNLLEQLI	5.05	4.68	4.88	7.14		pIC50 (HLA-A*02:01 [4]): 5.31
TAFFNTCKPT	4.50	4.65	4.48	6.27	4.42	
EIVKNIREGT	4.55	5.07	4.22	6.37	4.93	
DVIKSISSI	4.20	5.12	4.82	6.30	4.49	
TAEQLSKYV	5.28	5.05	4.62	5.66	4.27	
DTDIVNNFI	5.03	4.71	4.80	6.20	4.58	
YCLDFLFDV						pIC50 (HLA-A*02:01 [3]; [8]): 4.39; pIC50 (HLA-A*02:02; [8]): 4.76; pIC50 (HLA-A*02:03; [8]): ≤ 4.15; pIC50 (HLA-A*02:06 [1]; [8]): ≤ 4.15; pIC50 (HLA-A*68:02 [2]; [8]): 7.62
ETNIGCAVNT	≤ 4.15	4.43	≤ 4.15	7.66	4.23	
CTEETKRNI	≤ 4.15	≤ 4.15	≤ 4.15	5.41	≤ 4.15	
STSNVITDQT	4.27	≤ 4.15	4.96	7.11	4.41	
TVQIIKLL						pIC50 (HLA-A*02:01 [3]; [9]): 4.33; pIC50 (HLA-A*02:02; [9]): 4.36; pIC50 (HLA-A*02:03; [9]): ≤ 4.15; pIC50 (HLA-A*02:06 [1]; [9]): 4.29; pIC50 (HLA-A*68:02 [2]; [9]): 5.86
EAFETQSGA	≤ 4.15	≤ 4.15	≤ 4.30	6.98	≤ 4.15	

Sequence	pIC50 (HLA-A*02:02; [7])	pIC50 (HLA-A*02:03; [7])	pIC50 (HLA-A*02:06 [1]; [7])	pIC50 (HLA-A*68:02 [2]; [7])	pIC50 (HLA-A*02:01 [3]; [7])	also measured
EALYYVHSL	4.85	5.24	4.83	6.46	4.76	
EVIGLTTHCT	4.98	4.83	4.91	7.77	4.61	
AVYFKAKWLT	4.57	5.05	5.06	6.22	5.05	
WILWISFAIS						pIC50 (HLA-A*02:01 [3]; [9]): 4.67; pIC50 (HLA-A*02:02; [9]): 4.73; pIC50 (HLA-A*02:03; [9]): 5.04; pIC50 (HLA-A*02:06 [1]; [9]): 4.57; pIC50 (HLA-A*68:02 [2]; [9]): 5.60
ELPVKTDIV	4.64	5.09	4.94	5.45	4.95	
LTSNCTRTT	≤ 4.15	4.53	4.39	5.69	≤ 4.15	
NIREGTHVLL	5.05	5.26	4.46	5.60	4.87	
SVDFVVNGHT	≤ 4.15	≤ 4.15	≤ 4.15	5.87	≤ 4.15	
VAEHRFENM	5.15	5.15	4.32	5.36	≤ 4.15	
TINALVYFST	4.85	5.13	4.20	6.41	5.29	
NITHTNITTL	4.98	5.30	5.09	5.31	5.00	
DTEFINKFL	5.13	4.37	≤ 4.15	6.93	≤ 4.15	
TAATKRYPGV	4.59	4.98	5.25	6.02	4.37	
SARALKAYFT	4.67	5.11	4.59	5.38	4.23	
IAGLKIEEI	5.12	5.22			4.63	pIC50 (HLA-A*68:02 [5]): 4.56; pIC50 (HLA-A*02:06 [6]): 5.71
RQQLEDIFM	5.24	4.57			5.00	pIC50 (HLA-A*68:02 [5]): ≤ 4.15; pIC50 (HLA-A*02:06 [6]): 6.03
NVQSLIKFI	4.89	5.22	4.98	6.15	4.77	
VTPEYIKDL	4.98	≤ 4.15			5.03	pIC50 (HLA-A*68:02 [5]): ≤ 4.15; pIC50 (HLA-A*02:06 [6]): 5.75
ATCALVSDCA	4.46	4.63	5.04	7.74	4.25	
ETKRNIARHL	4.30	4.91	≤ 4.15	6.14	≤ 4.15	
NACDKHNKT	4.75	5.03	4.73	6.03	4.65	
YVLFVKKML	4.51	4.92			5.29	pIC50 (HLA-A*68:02 [5]): 4.94; pIC50 (HLA-A*02:06 [6]): 5.60
NVTGFMEEEI	4.99	5.29	4.75	5.83		pIC50 (HLA-A*02:01 [4]): 5.36

Sequence	pIC50 (HLA-A*02:02; [7])	pIC50 (HLA-A*02:03; [7])	pIC50 (HLA-A*02:06 [1]; [7])	pIC50 (HLA-A*68:02 [2]; [7])	pIC50 (HLA-A*02:01 [3]; [7])	also measured
TVDFTDCRTI	4.50	4.98	4.98	6.46	4.53	
DVSVSVGTGI	4.75	5.23	4.65	6.37	≤ 4.15	
DAIKSNNHLT	4.56	4.75	≤ 4.15	6.11	≤ 4.15	
KTPVIVVPVI	5.04	5.21			4.92	pIC50 (HLA-A*68:02 [5]): 4.44; pIC50 (HLA-A*02:06 [6]): 5.72
PVVYHDDDNT	5.04	4.57			4.93	pIC50 (HLA-A*68:02 [5]): 4.94; pIC50 (HLA-A*02:06 [6]): 5.87
NTLIQYRQQL	5.20	4.99	4.68	6.06	≤ 4.15	
FIDRGSIKI	5.01	4.91			5.16	pIC50 (HLA-A*68:02 [5]): 4.32; pIC50 (HLA-A*02:06 [6]): 5.40
NVTVTHSV						pIC50 (HLA-A*02:01 [3]; [9]): 4.65; pIC50 (HLA-A*02:02; [9]): 4.22; pIC50 (HLA-A*02:03; [9]): 4.84; pIC50 (HLA-A*02:06 [1]; [9]): 4.73; pIC50 (HLA-A*68:02 [2]; [9]): 5.90
GVLPEETNI	4.76	4.69			4.76	pIC50 (HLA-A*68:02 [5]): 4.92; pIC50 (HLA-A*02:06 [6]): 6.24
ETAIRAGYSI	4.59	4.53	4.75	6.87	5.22	
HTKFWISDNT	4.67	4.22	≤ 4.15	6.21	≤ 4.15	
YTEAAAATCA	4.44	4.79	5.15	6.80	4.44	
TAIRAGYSI	4.84	5.04	5.11	6.90	4.58	
LIYYQNEVT	4.85	5.28	5.07	5.97	4.55	
CVKYLLDNDI	4.50	5.25	5.12	5.70	4.89	
KTNTKHCPKI	4.47	4.96			4.44	pIC50 (HLA-A*68:02 [5]): 4.70; pIC50 (HLA-A*02:06 [6]): 6.63
ETVKMGAFM	4.83	5.13	4.40	7.09	≤ 4.15	
DTSPTKRCRL	4.91	4.43	4.35	5.70	≤ 4.15	
DTCGASINIT	4.63	≤ 4.15	≤ 4.15	5.71	4.37	
RASTTENAA	4.57	4.18	4.92	6.50	≤ 4.15	
NTGMGMYYPT	4.63	4.68	4.95	5.67	4.54	
